Laboratory results from patent US20170166655A1 (published 2017).
Like-named read-outs stand apart in the source and are kept apart here.

T1: human FcγRIIb, extracellular region (human, UniProt P31994 43-217)
T1 chain: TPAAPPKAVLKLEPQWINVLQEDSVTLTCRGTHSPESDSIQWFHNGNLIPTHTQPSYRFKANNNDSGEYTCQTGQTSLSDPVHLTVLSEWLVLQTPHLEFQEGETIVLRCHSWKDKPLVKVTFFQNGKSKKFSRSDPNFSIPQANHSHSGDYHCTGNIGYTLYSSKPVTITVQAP

T2: human FcγRI, extracellular region (human, UniProt P12314 16-292)
T2 chain: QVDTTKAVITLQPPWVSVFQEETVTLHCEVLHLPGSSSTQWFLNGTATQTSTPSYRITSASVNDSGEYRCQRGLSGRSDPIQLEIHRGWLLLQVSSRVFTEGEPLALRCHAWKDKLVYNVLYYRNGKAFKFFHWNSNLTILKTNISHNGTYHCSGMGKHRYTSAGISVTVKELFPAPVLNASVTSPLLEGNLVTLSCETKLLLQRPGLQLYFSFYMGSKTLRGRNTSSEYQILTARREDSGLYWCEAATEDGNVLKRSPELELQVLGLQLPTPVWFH

T3: human H131 FcγRIIa, extracellular region (human, UniProt P12318 34-217)
T3 chain: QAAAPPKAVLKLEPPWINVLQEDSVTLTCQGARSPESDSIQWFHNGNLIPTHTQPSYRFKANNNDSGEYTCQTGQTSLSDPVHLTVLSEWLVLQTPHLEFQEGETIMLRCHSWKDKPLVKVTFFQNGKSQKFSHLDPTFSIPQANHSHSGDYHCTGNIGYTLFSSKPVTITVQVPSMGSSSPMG

T4: human R131 FcγRIIa, extracellular region (human, UniProt P12318 34-217)
T4 chain: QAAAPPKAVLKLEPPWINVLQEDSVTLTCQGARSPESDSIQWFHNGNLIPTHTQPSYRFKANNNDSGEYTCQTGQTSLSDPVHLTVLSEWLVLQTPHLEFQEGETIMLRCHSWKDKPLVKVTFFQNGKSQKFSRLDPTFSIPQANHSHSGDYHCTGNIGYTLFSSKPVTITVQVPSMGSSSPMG


Key:
Assay in all cases: SPR
[1] = molecular target: human F158 FcγRIIIa, extracellular region (human, UniProt P08637 17-208)
Sequence of human F158 FcγRIIIa, extracellular region (P08637 17-208): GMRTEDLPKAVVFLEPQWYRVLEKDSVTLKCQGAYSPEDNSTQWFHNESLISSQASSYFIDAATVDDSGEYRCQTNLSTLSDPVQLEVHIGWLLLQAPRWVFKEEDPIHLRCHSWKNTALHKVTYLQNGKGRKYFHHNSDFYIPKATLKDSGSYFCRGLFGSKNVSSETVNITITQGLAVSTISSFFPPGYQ

[2] = molecular target: T1, human FcγRIIb, extracellular region
[3] = molecular target: T2, human FcγRI, extracellular region
[4] = molecular target: T3, human H131 FcγRIIa, extracellular region
[5] = molecular target: T4, human R131 FcγRIIa, extracellular region
[6] = molecular target: human V158 FcγRIIIa, extracellular region (human, UniProt P08637 17-208)
Sequence of human V158 FcγRIIIa, extracellular region (P08637 17-208 F176V): as the sequence (P08637 17-208) above, with F160V counted along it

[7] = molecular target: T3, human H131 FcγRIIa, extracellular region
[8] = molecular target: T4, human R131 FcγRIIa, extracellular region

| Kd [1] [nM] | Kd [2] [nM] | Kd [3] [nM] | Kd [4] [nM] | Kd [5] [nM] | Kd [6] [nM] | Kd [7] [nM] | Kd [8] [nM] | Binder |
| --- | --- | --- | --- | --- | --- | --- | --- | --- |
| 81.7 | 682 | 24.2 | 160 | 128 | 30.3 | – | – | IgG2_S239D/I332E (antibody) ASTKGPSVFPLAPCSRSTSESTAALGCLVKDYFPEPVTVSWNSGALTSGVHTFPAVLQSSGLYSLSSVVTVPSSNFGTQTYTCNVDHKPSNTKVDKTVERKCCVECPPCPAPPVAGPDVFLFPPKPKDTLMISRTPEVTCVVVDVSHEDPEVQFNWYVDGVEVHNAKTKPREEQFNSTFRVVSVLTVVHQDWLNGKEYKCKVSNKGLPAPEEKTISKTKGQPREPQVYTLPPSREEMTKNQVSLTCLVKGFYPSDIAVEWESNGQPENNYKTTPPMLDSDGSFFLYSKLTVDKSRWQQGNVFSCSVMHEALHNHYTQKSLSLSPGK |
| – | – | – | 525 | 4270 | – | – | – | IgG2 WT (antibody) ASTKGPSVFPLAPCSRSTSESTAALGCLVKDYFPEPVTVSWNSGALTSGVHTFPAVLQSSGLYSLSSVVTVPSSNFGTQTYTCNVDHKPSNTKVDKTVERKCCVECPPCPAPPVAGPSVFLFPPKPKDTLMISRTPEVTCVVVDVSHEDPEVQFNWYVDGVEVHNAKTKPREEQFNSTFRVVSVLTVVHQDWLNGKEYKCKVSNKGLPAPIEKTISKTKGQPREPQVYTLPPSREEMTKNQVSLTCLVKGFYPSDIAVEWESNGQPENNYKTTPPMLDSDGSFFLYSKLTVDKSRWQQGNVFSCSVMHEALHNHYTQKSLSLSPGK |
| 36.3 | 232 | 13.2 | 122 | 161 | 19.4 | – | – | IgG2_S239D/I332E/G327A (antibody) ASTKGPSVFPLAPCSRSTSESTAALGCLVKDYFPEPVTVSWNSGALTSGVHTFPAVLQSSGLYSLSSVVTVPSSNFGTQTYTCNVDHKPSNTKVDKTVERKCCVECPPCPAPPVAGPDVFLFPPKPKDTLMISRTPEVTCVVVDVSHEDPEVQFNWYVDGVEVHNAKTKPREEQFNSTFRVVSVLTVVHQDWLNGKEYKCKVSNKALPAPEEKTISKTKGQPREPQVYTLPPSREEMTKNQVSLTCLVKGFYPSDIAVEWESNGQPENNYKTTPPMLDSDGSFFLYSKLTVDKSRWQQGNVFSCSVMHEALHNHYTQKSLSLSPGK |
| – | – | – | – | – | – | 525 | 4270 | WT IgG2 (antibody) ASTKGPSVFPLAPCSRSTSESTAALGCLVKDYFPEPVTVSWNSGALTSGVHTFPAVLQSSGLYSLSSVVTVPSSNFGTQTYTCNVDHKPSNTKVDKTVERKCCVECPPCPAPPVAGPSVFLFPPKPKDTLMISRTPEVTCVVVDVSHEDPEVQFNWYVDGVEVHNAKTKPREEQFNSTFRVVSVLTVVHQDWLNGKEYKCKVSNKGLPAPIEKTISKTKGQPREPQVYTLPPSREEMTKNQVSLTCLVKGFYPSDIAVEWESNGQPENNYKTTPPMLDSDGSFFLYSKLTVDKSRWQQGNVFSCSVMHEALHNHYTQKSLSLSPGK |
